Laboratory results from patent US20260284139 (published 2026).
Read-outs that look alike come from different tables or passages of the source. Where no end group is shown, it is not given here. [ ]: non-standard residue; d: D form. The star is where a group is joined. Octanoyl = CCCCCCCC(=O)*

Experiments:
[1] = target: T1, β-catenin (full-length recombinant) (human, UniProt P35222); assay: FP, room temperature
T1 chain: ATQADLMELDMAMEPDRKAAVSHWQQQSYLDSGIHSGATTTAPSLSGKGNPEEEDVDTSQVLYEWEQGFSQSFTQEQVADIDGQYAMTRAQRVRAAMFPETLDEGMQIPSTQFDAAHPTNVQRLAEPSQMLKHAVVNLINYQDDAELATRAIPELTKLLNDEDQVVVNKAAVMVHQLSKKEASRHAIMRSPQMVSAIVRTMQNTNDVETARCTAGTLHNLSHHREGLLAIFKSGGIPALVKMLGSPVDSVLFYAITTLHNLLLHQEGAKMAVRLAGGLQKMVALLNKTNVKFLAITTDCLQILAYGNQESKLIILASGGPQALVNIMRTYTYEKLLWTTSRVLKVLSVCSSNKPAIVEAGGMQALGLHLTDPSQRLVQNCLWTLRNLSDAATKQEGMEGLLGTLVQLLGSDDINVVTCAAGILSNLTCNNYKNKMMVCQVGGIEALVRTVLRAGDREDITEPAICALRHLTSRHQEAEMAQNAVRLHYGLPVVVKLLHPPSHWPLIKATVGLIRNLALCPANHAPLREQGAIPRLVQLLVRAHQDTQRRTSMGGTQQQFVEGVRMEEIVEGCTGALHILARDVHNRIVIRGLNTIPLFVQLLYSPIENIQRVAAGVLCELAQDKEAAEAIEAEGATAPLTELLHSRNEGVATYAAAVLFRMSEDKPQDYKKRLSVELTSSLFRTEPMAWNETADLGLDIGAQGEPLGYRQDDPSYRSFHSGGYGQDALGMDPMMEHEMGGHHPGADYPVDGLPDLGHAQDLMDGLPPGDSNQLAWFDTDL

[2] = target: T1, β-catenin (full-length recombinant); assay: competition, ALPHA assay vs BCL9 HD2 peptide, pH 6.5
[3] = target: T1, β-catenin (full-length recombinant)

Binder: Octanoyl-[dF][dR][dW][dL][dL][dR][dQ][dL][dA][dR][dL][dA][dQ][dL][dA][dK][dL][dT][dP][dV][dK][dL][dT][dP][dV] (also: FITC conjugate used in the FP assay) [ST316]
- Kd [1]: ~126 nM
- IC50 [2]: ~1000 nM

B1: BCL9 (protein)
chain: MHSSNPKVRSSPSGNTQSSPKSKQEVMVRPPTVMSPSGNPQLDSKFSNQGKQGGSASQSQPSPCDSKSGGHTPKALPGPGGSMGLKNGAGNGAKGKGKRERSISADSFDQRDPGTPNDDSDIKECNSADHIKSQDSQHTPHSMTPSNATAPRSSTPSHGQTTATEPTPAQKTPAKVVYVFSTEMANKAAEAVLKGQVETIVSFHIQNISNNKTERSTAPLNTQISALRNDPKPLPQQPPAPANQDQNSSQNTRLQPTPPIPAPAPKPAAPPRPLDRESPGVENKLIPSVGSPASSTPLPPDGTGPNSTPNNRAVTPVSQGSNSSSADPKAPPPPPVSSGEPPTLGENPDGLSQEQLEHRERSLQTLRDIQRMLFPDEKEFTGAQSGGPQQNPGVLDGPQKKPEGPIQAMMAQSQSLGKGPGPRTDVGAPFGPQGHRDVPFSPDEMVPPSMNSQSGTIGPDHLDHMTPEQIAWLKLQQEFYEEKRRKQEQVVVQQCSLQDMMVHQHGPRGVVRGPPPPYQMTPSEGWAPGGTEPFSDGINMPHSLPPRGMAPHPNMPGSQMRLPGFAGMINSEMEGPNVPNPASRPGLSGVSWPDDVPKIPDGRNFPPGQGIFSGPGRGERFPNPQGLSEEMFQQQLAEKQLGLPPGMAMEGIRPSMEMNRMIPGSQRHMEPGNNPIFPRIPVEGPLSPSRGDFPKGIPPQMGPGRELEFGMVPSGMKGDVNLNVNMGSNSQMIPQKMREAGAGPEEMLKLRPGGSDMLPAQQKMVPLPFGEHPQQEYGMGPRPFLPMSQGPGSNSGLRNLREPIGPDQRTNSRLSHMPPLPLNPSSNPTSLNTAPPVQRGLGRKPLDISVAGSQVHSPGINPLKSPTMHQVQSPMLGSPSGNLKSPQTPSQLAGMLAGPAAAASIKSPPVLGSAAASPVHLKSPSLPAPSPGWTSSPKPPLQSPGIPPNHKAPLTMASPAMLGNVESGGPPPPTASQPASVNIPGSLPSSTPYTMPPEPTLSQNPLSIMMSRMSKFAMPSSTPLYHDAIKTVASSDDDSPPARSPNLPSMNNMPGMGINTQNPRISGPNPVVPMPTLSPMGMTQPLSHSNQMPSPNAVGPNIPPHGVPMGPGLMSHNPIMGHGSQEPPMVPQGRMGFPQGFPPVQSPPQQVPFPHNGPSGGQGSFPGGMGFPGEGPLGRPSNLPQSSADAALCKPGGPGGPDSFTVLGNSMPSVFTDPDLQEVIRPGATGIPEFDLSRIIPSEKPSQTLQYFPRGEVPGRKQPQGPGPGFSHMQGMMGEQAPRMGLALPGMGGPGPVGTPDIPLGTAPSMPGHNPMRPPAFLQQGMMGPHHRMMSPAQSTMPGQPTLMSNPAAAVGMIPGKDRGPAGLYTHPGPVGSPGMMMSMQGMMGPQQNIMIPPQMRPRGMAADVGMGGFSQGPGNPGNMMF
- Kd [3]: ~200 nM
